From the supplement of paper PMC7877785
± gives the uncertainty stated by the source.

Experiment: self-splicing fitness, log relative to wild type (ln ratio); higher = more splicing; Tetrahymena group I intron in knt gene, E. coli kanamycin selection, DiMSum; sequences stand for … in CUCUCU…GGAGGGAAAAGUUAUCAGGCAUGCACCUGGUAGCUAGUCUUUAAACCAAUAGAUUGCAUCGGUUUAAAAGGCAAGACCGUCAAAUUGCGGGAAAGGGGUCAACAGCCGUUCAGUACCAAGUCUCAGGGGAAACUUUGAGAUGGCCUUGCAAAGGGUAUGGUAAUAAGCUGACGGACAUGGUCCUAACCACGCAGCCAAGUCCUAAGUCAACAGAUCUUCUGUUGAUAUGGAUGCAGUUCACAGACUAAAUGUCGGUCGGGGAAGAUGUAUUCUUCUCAUAAGAUAUAGUCGGACCUCUCCUUAAUGGGAGCUAGCGGAUGAAGUGAUGCAACACUGGAGCCGCUGGGAACUAAUUUGUAUGCGAAAGUAUAUUGAUUAGUUUUGGAGUACUCGUGGUCG
Outline: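 Six replicate transformations of E. coli BL21(DE3) with a pET-22b(+) library were grown overnight at 37°C or 30°C. The library randomised all eight P1ex-region intron nucleotides, the intron lying in the knt kanamycin-resistance gene, and plates were LB agar with or without 25 μg/mL kanamycin plus 100 μg/mL carbenicillin, 50 μM IPTG and 0.2% rhamnose. Pooled colonies were amplicon-sequenced on an Illumina HiSeq 2500, and fitness is the DiMSum error-weighted combination of wild-type-normalised replicate fold changes, kanamycin versus none.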

Row | Sequence | self-splicing fitness (ln) (30 °C) | self-splicing fitness (ln) (37 °C)
1 | AUCCAGCAAUAUUACGAGUA | -2.01 ± 0.18 | -1.07 ± 0.12
2 | GGCUAGCAAUAUUACGUCAA | -1.34 ± 0.11 | -0.747 ± 0.12
3 | GCUUAGCAAUAUUACGGGUU | -1.95 ± 0.094 | -1.43 ± 0.14
4 | AGCAAGCAAUAUUACGCUUC |  | -3.29 ± 0.42
5 | AGAAAGCAAUAUUACGCUAG | -3.32 ± 0.22 | -2.65 ± 0.21
6 | CUGAAGCAAUAUUACGGUGC | -2.89 ± 0.25 | 
7 | AGAUAGCAAUAUUACGCGAU | -2.53 ± 0.25 | -2.15 ± 0.27
8 | UGUCAGCAAUAUUACGACGA | -0.0655 ± 0.12 | -1.08 ± 0.12
9 | AUGGAGCAAUAUUACGUGGA | -4.25 ± 0.4 | -1.78 ± 0.29
10 | ACAAAGCAAUAUUACGGAGA | -3.37 ± 0.19 | -2.39 ± 0.19
11 | AUAGAGCAAUAUUACGGUGU | -1.24 ± 0.1 | -0.567 ± 0.15
12 | CGUGAGCAAUAUUACGGACU | -1.09 ± 0.14 | -0.345 ± 0.23
13 | ACCAAGCAAUAUUACGCAGA | -2.84 ± 0.25 | -0.709 ± 0.14
14 | GAUCAGCAAUAUUACGAUUC | -3.05 ± 0.38 | -1.79 ± 0.27
15 | CGUUAGCAAUAUUACGGUCU | -1.56 ± 0.18 | -1.22 ± 0.16
16 | GUCGAGCAAUAUUACGUGCG | -2.9 ± 0.17 | -2 ± 0.17
17 | CUACAGCAAUAUUACGGACA | -1.52 ± 0.39 | -2.47 ± 0.38
18 | CGAUAGCAAUAUUACGCUUA | -2.23 ± 0.12 | -1.19 ± 0.078
19 | ACUGAGCAAUAUUACGGUAU | -3.55 ± 0.18 | -3.17 ± 0.26
20 | GUCUAGCAAUAUUACGGAAC | -1.15 ± 0.26 | 1.15 ± 0.16
21 | GGCCAGCAAUAUUACGCCCC | -1.65 ± 0.17 | -0.851 ± 0.26
22 | CCACAGCAAUAUUACGGGGU | -3.71 ± 0.098 | -2.53 ± 0.11
23 | AGUUAGCAAUAUUACGUUGU | -4.38 ± 0.37 | -3.36 ± 0.37
24 | ACAAAGCAAUAUUACGCACC | -0.449 ± 0.19 | 0.128 ± 0.2
25 | UCACAGCAAUAUUACGCUUC | -4.3 ± 0.43 | -3.28 ± 0.43

Row | Sequence | self-splicing fitness (ln) (30 °C) | self-splicing fitness (ln) (37 °C)
26 | GUGGAGCAAUAUUACGAUGA | -1.37 ± 0.19 | -1.39 ± 0.37
27 | CAGCAGCAAUAUUACGCCCC | -1.87 ± 0.48 | -0.533 ± 0.43
28 | AAAUAGCAAUAUUACGUUCU | -0.419 ± 0.069 | -0.584 ± 0.091
29 | GACCAGCAAUAUUACGUAUA | -1.06 ± 0.059 | -0.251 ± 0.079
30 | CAGAAGCAAUAUUACGCAGG | -2.75 ± 0.15 | -1.73 ± 0.13
31 | GGUGAGCAAUAUUACGAGUC | -1.67 ± 0.24 | -1.83 ± 0.37
32 | AACGAGCAAUAUUACGAGGC | -2.92 ± 0.29 | -2.97 ± 0.48
33 | CUACAGCAAUAUUACGUCUA | -3.21 ± 0.24 | -3.04 ± 0.33
34 | UCUGAGCAAUAUUACGCCCG | -2.56 ± 0.28 | -2.38 ± 0.49
35 | UAUGAGCAAUAUUACGGACG | -2.79 ± 0.25 | -1.19 ± 0.23
36 | CCAGAGCAAUAUUACGAGCC |  | -1.84 ± 0.42
37 | CGAUAGCAAUAUUACGGAAU | -3.23 ± 0.16 | -2.01 ± 0.2
38 | UCGAAGCAAUAUUACGUGCA | -0.485 ± 0.096 | -0.214 ± 0.095
39 | AGCGAGCAAUAUUACGUUAU | -3.81 ± 0.36 | -0.895 ± 0.16
40 | UUACAGCAAUAUUACGGACC | -3.25 ± 0.4 | -1.41 ± 0.32
41 | UUCCAGCAAUAUUACGCAAC | -3.02 ± 0.44 | 
42 | CGGAAGCAAUAUUACGUACA | -0.615 ± 0.13 | -0.219 ± 0.15
43 | CCCCAGCAAUAUUACGCCCC | -2.98 ± 0.38 | 
44 | GAUAAGCAAUAUUACGAAGA | -3.41 ± 0.24 | -1.7 ± 0.22
45 | ACGAAGCAAUAUUACGUCAG | -3.43 ± 0.19 | -1.1 ± 0.12
46 | CCCCAGCAAUAUUACGCCUG | -3.37 ± 0.19 | -2.97 ± 0.27
47 | UUUUAGCAAUAUUACGGAUU | -1.8 ± 0.1 | -1.36 ± 0.15
48 | AGCGAGCAAUAUUACGGCCA | -1.8 ± 0.099 | -1.27 ± 0.078
49 | GAUAAGCAAUAUUACGCUGC | -2.88 ± 0.23 | -3.04 ± 0.3
